Our source for the maximal second-order rate constant (k2) of thrombin inhibition, values is patent US20220119793A1.

The target of this assay is α-thrombin. The experiment in a line: cell-based or functional assay.

As for “human heparin cofactor II 60-sTyr-73-sTyr (from UniProt P05546 20-499)”, the maximal second-order rate constant (k2) of thrombin inhibition, at ~20 µg/mL heparin turned out to be 5e+06 M⁻¹ s⁻¹.
